Assay results taken from US20130302346A1 (LEXICON PHARMACEUTICALS, published 2013).

Legend:
[1] = target: T1, Human NOTUM R144A/R145A (human, UniProt Q6P988 20-496); assay: ELISA
T1 construct: Alanine mutant, expressed and secreted after transient transfection
T1 sequence: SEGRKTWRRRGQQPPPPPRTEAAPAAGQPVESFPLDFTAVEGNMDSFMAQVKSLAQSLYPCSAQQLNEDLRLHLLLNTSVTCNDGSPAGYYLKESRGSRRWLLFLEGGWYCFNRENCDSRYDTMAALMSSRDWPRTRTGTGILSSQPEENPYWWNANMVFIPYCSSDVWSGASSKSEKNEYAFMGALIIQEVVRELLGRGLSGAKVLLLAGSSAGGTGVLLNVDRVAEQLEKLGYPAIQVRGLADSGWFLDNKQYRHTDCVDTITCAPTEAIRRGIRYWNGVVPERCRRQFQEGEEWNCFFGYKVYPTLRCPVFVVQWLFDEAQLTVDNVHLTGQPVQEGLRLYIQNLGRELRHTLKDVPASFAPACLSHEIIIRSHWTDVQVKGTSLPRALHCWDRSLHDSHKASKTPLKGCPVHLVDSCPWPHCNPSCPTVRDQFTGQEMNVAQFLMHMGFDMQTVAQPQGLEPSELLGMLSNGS

[2] = target: T2, M-H; assay: ELISA on conditioned medium of HEK293F transfected with the NOTUM construct (Example 6.7)
T2 construct: Drawn on the sheet as mouse N-terminal part and human C-terminal part; Conditioned medium from transfected HEK293F; also called Mouse-human chimeric NOTUM
T2 single chain: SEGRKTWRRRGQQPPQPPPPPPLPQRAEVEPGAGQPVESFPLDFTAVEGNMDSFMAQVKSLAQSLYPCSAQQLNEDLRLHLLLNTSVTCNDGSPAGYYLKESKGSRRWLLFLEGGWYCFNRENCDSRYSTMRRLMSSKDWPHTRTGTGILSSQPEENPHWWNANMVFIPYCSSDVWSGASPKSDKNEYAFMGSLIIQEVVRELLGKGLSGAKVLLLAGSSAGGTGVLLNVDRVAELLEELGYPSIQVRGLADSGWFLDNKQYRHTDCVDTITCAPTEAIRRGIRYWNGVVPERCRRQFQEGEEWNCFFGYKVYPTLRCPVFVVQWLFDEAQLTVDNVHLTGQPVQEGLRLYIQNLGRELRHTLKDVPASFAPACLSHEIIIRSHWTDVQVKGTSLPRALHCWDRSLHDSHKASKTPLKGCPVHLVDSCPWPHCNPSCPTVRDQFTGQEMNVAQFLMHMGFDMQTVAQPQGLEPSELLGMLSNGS
From the text: (§1) The sequences of those proteins are shown in Section 7 (Table of Sequences). The conditioned media were used in ELISA format to determine antibody specificity. […] Within this region, mouse and human NOTUM differ at five positions (R115K, D141S. R150K, R154H, and Y171H, based on the human sequence numbering). Human NOTUM point mutants were generated by transient transfection of constructs expressing human NOTUM with the mouse amino acid at each of these five positions and the point mutants were all shown to be functional in the OPTS assay.

[3] = target: T3, H(N96D); assay: as above
T3 construct: Human NOTUM with N96D, marked inside the Q47-M177 box on the sheet; also called Human NOTUM N96D
T3 single chain: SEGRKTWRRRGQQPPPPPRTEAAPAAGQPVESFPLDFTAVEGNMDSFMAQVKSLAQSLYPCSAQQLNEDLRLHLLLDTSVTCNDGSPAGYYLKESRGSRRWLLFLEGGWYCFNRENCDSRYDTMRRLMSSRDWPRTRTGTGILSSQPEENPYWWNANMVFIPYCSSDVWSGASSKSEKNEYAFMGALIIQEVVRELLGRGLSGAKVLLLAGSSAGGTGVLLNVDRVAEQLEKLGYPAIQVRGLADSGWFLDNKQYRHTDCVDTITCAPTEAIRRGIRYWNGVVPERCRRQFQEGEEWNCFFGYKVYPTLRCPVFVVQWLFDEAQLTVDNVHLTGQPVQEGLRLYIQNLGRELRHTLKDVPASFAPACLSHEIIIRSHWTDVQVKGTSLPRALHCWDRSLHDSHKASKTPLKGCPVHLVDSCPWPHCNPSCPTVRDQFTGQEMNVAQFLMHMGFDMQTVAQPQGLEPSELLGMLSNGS
From the text: as §1

[4] = target: T4, H(S232A); assay: as above
T4 construct: The catalytic triad serine is drawn as A on the sheet; also called Human NOTUM S232A
T4 single chain: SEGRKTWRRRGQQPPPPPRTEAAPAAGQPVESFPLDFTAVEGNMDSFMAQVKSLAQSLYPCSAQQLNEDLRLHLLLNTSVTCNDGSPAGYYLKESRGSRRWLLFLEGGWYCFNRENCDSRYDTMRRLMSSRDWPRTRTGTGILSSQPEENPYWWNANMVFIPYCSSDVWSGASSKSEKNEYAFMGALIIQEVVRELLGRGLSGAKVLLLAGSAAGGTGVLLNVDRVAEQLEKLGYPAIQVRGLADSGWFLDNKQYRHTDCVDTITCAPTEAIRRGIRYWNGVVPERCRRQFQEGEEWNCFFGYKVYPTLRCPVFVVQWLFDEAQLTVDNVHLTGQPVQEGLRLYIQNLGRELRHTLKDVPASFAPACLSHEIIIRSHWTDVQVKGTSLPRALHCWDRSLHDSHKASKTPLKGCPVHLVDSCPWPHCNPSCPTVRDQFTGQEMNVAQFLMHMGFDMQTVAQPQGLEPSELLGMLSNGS
From the text: as §1

[5] = target: T5, H-M; assay: as above
T5 construct: Drawn on the sheet as human N-terminal part and mouse C-terminal part; Produced by transient transfection of HEK293F and used as conditioned medium; also called Human-mouse chimeric NOTUM
T5 single chain: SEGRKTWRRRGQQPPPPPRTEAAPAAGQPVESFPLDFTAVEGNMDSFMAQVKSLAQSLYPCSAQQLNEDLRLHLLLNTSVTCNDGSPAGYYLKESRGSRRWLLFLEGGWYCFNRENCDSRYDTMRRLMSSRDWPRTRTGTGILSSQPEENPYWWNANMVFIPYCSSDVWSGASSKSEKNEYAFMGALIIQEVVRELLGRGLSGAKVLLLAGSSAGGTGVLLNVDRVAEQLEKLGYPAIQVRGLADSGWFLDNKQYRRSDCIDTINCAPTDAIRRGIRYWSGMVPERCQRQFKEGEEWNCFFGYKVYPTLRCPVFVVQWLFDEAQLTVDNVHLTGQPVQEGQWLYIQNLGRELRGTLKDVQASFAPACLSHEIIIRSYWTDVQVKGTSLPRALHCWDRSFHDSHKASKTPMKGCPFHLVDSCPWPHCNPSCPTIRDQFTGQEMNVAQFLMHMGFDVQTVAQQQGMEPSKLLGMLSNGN
From the text: as §1

Binder | binding result [1] | binding result [2] | binding result [3] | binding result [4] | binding result [5]
MAb 1.802 (antibody, V domains shown, Mouse monoclonal antibody from Campaign 1 (raised against human NOTUM), IgG1) VH: EVQLVESGGGLVKPGGSLKLSCAASGFTFSDYGMHWFRQAPEKGLEWVAYISSGSRTVYYADTVKGRFTISRDNAKNTLSLQMTSLRSEDTAMYYCARKHYNGGYFDVWGTGTTVTVSS VL: DIVLTQSPASLAVSLGQRATISCRASKIVSTSGYSYMHWYQQKPGQPPKLLIYLASNLESGVPARFSGSGSGTDFTLNIHPVEEEDAATYYCQHSRELPPTFGSGTKLEIKR | no binding | no binding | binds | binds | binds
MAb 1.815 (antibody, IgG1, V domains shown, Mouse monoclonal antibody from Campaign 1, IgG1) VH: DVQLLESGGGLVQPGGSRKLSCAASGFTFSDFGMHWVRQAPEKGLEWVAYSSSGGTTVYYADTVKGRLTLSRDNSKNTLFLEMTSLRSEDTAMYYCARASYDGGYFDCWGQGTSLTVSS VL: DIVLTQSPASLAVSLGQRATISCRASKSVSTSGYSYIHWYQQKPGQPPKLLIYLASDLESGVPARFSGSGSGAAFTLNIHPVEEEDAATYYCHHSRELPFTFGSGTKLEIKR | no binding | no binding | binds | binds | binds
MAb 1.846 (antibody, IgG2b, V domains shown, Mouse monoclonal antibody from Campaign 1, IgG2b) VH: EVQLVESGGDLVKPGGSLKLSCAASGFTFSDYGMHWLRQAPEKGLEWVAYISSGSTTLSYANTMKGRFTISRDNAKKTLSLQMTSLRSEDTAIYYCARKNYNGGYFDVWGTGTTVTVSS VL: DIVLTQSPASLVVSLGQRATISCRASKSVSESGYSYMHWYQQKPGQPPKLLIYLASNLESGVPARFSGSGSGTDFTLNIHPVEEGDATTYYCQHSRVLPPTFGSGTKLEIKR | no binding | no binding | binds | binds | binds
